# Measured values taken from patent publication US9102755B2, “Highly stabilized epidermal growth factor mutants” (PnP Biopharm Co., Ltd., priority 2013, dated 2015).
# Entries after “also recorded” stand apart in the source; their conditions may differ.
# Experiments:
# [1] = Solubility of wild-type and mutant EGFs in 20 mM sodium phosphate (pH 5.5); format: physicochemical; details: for Solubility: 1 mg in 1 ml 20 mM sodium phosphate pH 5.5, supernatant, Bradford and UV method; for Solubility (Comparison with wild-type %): 20 mM sodium phosphate pH 5.5, relative to wild-type EGF
# Experimental: 1 mg of the respective wild-type and mutant EGFs prepared was dissolved in 1 ml of 20 mM sodium phosphate (pH 5.5 that is the similarly pH environment as cosmetics). In order to remove undissolved EGF, the mixture thus obtained was centrifuged and then supernatant was obtained. The concentration of the supernatant thus obtained was measured by using a Bradford method and UV method.
# [2] = Structure and thermal stability (Tm) by circular dichroism; format: physicochemical; details: 0.1 mg/ml; for Tm (melting temperature): circular dichroism, 20° C. to 95° C. at 1° C./min; for Structure change: circular dichroism 190-250 nm, 20 mM sodium phosphate pH 5.5, 20° C., versus wild-type EGF
# Experimental: The structure and thermal stability of the purified EGF mutant were measured through a circular dichroism analysis using a J-810 spectrometer (JASCO). As the wild-type EGF, the purified EGF prepared in Example 2 was used. In order to analyze the structure, each EGF was dissolved in 20 mM sodium phosphate (pH 5.5) to be uniformly a final concentration of 0.1 mg/ml. And then, the dissolved EGF solution was added to 0.1 cm cell, and then its structure was analyzed under the conditions of, as 190 nm to 250 nm region, band width 1 nm, response 0.25 sec, data pitch 0.1 nm, scanning speed 20 nm/min, cell length 1 cm, accumulation 8 times, and a temperature of 20° C.
# In order to analyze the thermal stability, a wavelength of 200 nm was determined through a comparison analysis of far-UV at the Tm (melting temperature) of 20° C. and 95° C., and progressed in a concentration of 0.1 mg/ml in 0.1 cm cell. As the conditions, it was measured at 20° C. to 95° C. under condition of 1° C./min.
# The structure is changed at the band of about 195 nm when generating a folding-unfolding phenomenon. Using it, the melting temperature (Tm) was measured in the range of 20 to 95° C., and thus the accurate Tm value was analyzed. As a result, as for the structure change, most mutants had the similar structure as the wild-type EGF, and thus there were few changes. […] It can be confirmed that the thermal stabilities of M2 and M3 were improved by 87° C.
# [3] = Circular dichroism after incubation at 60° C.; format: physicochemical; details: for Percentage to wild-type EGF (CD signal value at 200 nm): 0.3 mg/ml, 20 mM sodium phosphate pH 5.5, 60° C., five days
# Experimental: The stabilities of wild-type EGF and mutants should be confirmed through being stored at room temperature for a long period of time, but there is a disadvantage in that the time is too long. Therefore, the incubation test was performed at extreme environment for a short period of time. 0.3 mg/ml of each of the wild-type EGF and mutants was dissolved in 20 mM sodium phosphate (pH 5.5), and then subjected to the incubation in a water bath of 60° C. The sampling was performed per 24 hours unit, and then centrifuged at 13000 rpm and 4° C. for 15 minutes to collect the supernatant. The supernatant was diluted with 20 mM sodium phosphate (pH 5.5), and its structure was measured by using a circular dichroism. And then, the supernatant was added to 0.1 cm cell, and its structure was analyzed under the conditions of, in a region of 190 nm to 250 nm, band width 1 nm, response 0.25 sec, data pitch 0.1 nm, scanning speed 20 nm/min, cell length 1 cm, accumulation 8 times, a temperature of 20° C. […] In order to easily confirm such a result, the graph as illustrated in FIG. 3 is used using the ratio of the signal value at a first day to the signal value at 200 nm that has the biggest difference of signals. Table. […] From such a result, it can be confirmed that the EGF mutants prepared in the present invention have excellent thermal stability and solubility.
# NIH3T3 cell line = experiment: Test of cell proliferation after incubation in cosmetic basic essence; format: cell-based; details: 60° C., 5 days, versus wild-type EGF, FIG. 4
# Experimental: And then, the incubated samples were centrifuged to collect supernatants.
Substance,Solubility [1] [µg/mL],Solubility (Comparison with wild-type %) [1] [%],Tm (melting temperature) [2],Tm (melting temperature) ([2]; listed as Wide type EGF),Percentage to wild-type EGF (CD signal value at 200 nm) [3] [%],"CD structure signal over time (in words) ([3]; 60° C., 20 mM sodium phosphate pH 5.5, sampling per 24 hours, compared with the mutants, FIG. 3)",Structure change [2],Cell proliferation activity after incubation (NIH3T3 cell line)
"Wild-type EGF: human epidermal growth factor, 53 amino acids, SEQ ID NO:1, produced in E. coli (Example 2) [reference compound]",507.3,100,76 °C,(76° C.),100,significantly decreased,,
"M3: EGF mutant by fusion of A-8-2, D-38-10, and E-46-2; SEQ ID NO:2 (NSDSECPSSHDGYCLHDGVCMYIEALDKYACNCVVGYCGERCQYRCLKWWELR; not fully specified)",681.7,134,,,,,slightly changed; also recorded: Little change,higher cell proliferation activity
"C-25-1: EGF mutant, 25th alanine substituted with serine (SEQ ID NO: 72) (NSDSECPLSHDGYCLHDGVCMYIESLDKYACNCVVGYIGERCQYRDLKWWELR; not fully specified; Epidermal growth factor; UniProt P01133 971-1023, looked up, variant A25S)",617.8,122,(76° C.),,106.38,,No change,
"B-19-3: EGF mutant, 19th valine substituted with glutamic acid (SEQ ID NO: 68) (NSDSECPLSHDGYCLHDGECMYIEALDKYACNCVVGYIGERCQYRDLKWWELR; not fully specified; Epidermal growth factor; UniProt P01133 971-1023, looked up, variant V19E)",,,(76° C.),,84.22,,No change,
